{"source": "patent US20080213270", "test_system": "Neurotensin (1-13)"}
{"substance": "neurolysin (NLN), mouse mast cell-associated", "values": [{"measurement": "NT degradation by A23187-activated BMCMCs transduced with shRNA (percentage of NT remaining)", "value": "mMC-CPA- or NL-shRNA-transduced BMCMCs also exhibited significantly reduced ability to degrade NT after activation with A23187 (5 uM)"}, {"measurement": "NT degradation by membrane or cytosol preparations of mouse BMCMCs (percentage of NT remaining)", "value": "either membrane or cytosol preparations of mouse BMCMCs degraded NT, an ability that was almost completely inhibited by the NLN inhibitor, Pro-Ile (10 mM)"}]}
